Among the data in patent US20060063208A1 (GENERAL HOSPITAL, published 2006) are Kd values, retold here.

The assay addresses T1, DRAGON-Fc fusion protein (DRAGON without its GPI anchor fused to the Fc portion of human IgG) (mouse; human, UniProt Q7TQ33 49-415, limits assumed).
T1 construct: Purified from stably transfected HEK293 cells; also called soluble DRAGON; not shown: Fc portion of the human IgG (vector pIgplus, R&D Systems)
T1 sequence: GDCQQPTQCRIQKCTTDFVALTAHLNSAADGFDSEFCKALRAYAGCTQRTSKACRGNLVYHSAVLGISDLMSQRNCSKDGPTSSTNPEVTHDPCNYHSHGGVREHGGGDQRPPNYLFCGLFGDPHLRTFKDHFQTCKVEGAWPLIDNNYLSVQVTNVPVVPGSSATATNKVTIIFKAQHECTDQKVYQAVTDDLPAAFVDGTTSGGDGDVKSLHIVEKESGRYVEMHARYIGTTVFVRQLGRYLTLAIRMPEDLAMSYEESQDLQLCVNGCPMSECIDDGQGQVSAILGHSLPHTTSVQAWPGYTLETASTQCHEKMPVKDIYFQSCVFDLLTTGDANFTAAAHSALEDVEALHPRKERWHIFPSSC
The assay can be described thus: DRAGON-Fc with [125I]-BMP2 and increasing unlabeled BMP2, capture on protein A plates.

B1: BMP-2 (ligand, human, UniProt P12643 283-396, looked up)
chain: QAKHKQRKRLKSSCKRHPLYVDFSDVGWNDWIVAPPGYHAFYCHGECPFPLADHLNSTNHAIVQTLVNSVNSKIPKACCVPTELSAISMLYLDENEKVVLKNYQDMVVEGCGCR
modifications: iodinated with 125I where used as tracer
Broadly, the Kd is the equilibrium constant for the complex coming apart. A high value points to weaker binding. Molecule B1 gave a Kd of 1.5 nM.
